In US20260258117A1 (ACADEMISCH ZIEKENHUIS LEIDEN H O D N LUMC, published 2026):
Blank lines part the entries; values can stand above or below the binder they belong to.

What was measured:
C4b-binding protein = biological target: T1, C4b-binding protein (human, UniProt P04003 49-597; P20851 18-252); assay: bispecific ELISA and complement activation assay on biotinylated BSA-DNP, C4BP detected
T1 construct: also called C4BP
T1 sequence (looked up) 1: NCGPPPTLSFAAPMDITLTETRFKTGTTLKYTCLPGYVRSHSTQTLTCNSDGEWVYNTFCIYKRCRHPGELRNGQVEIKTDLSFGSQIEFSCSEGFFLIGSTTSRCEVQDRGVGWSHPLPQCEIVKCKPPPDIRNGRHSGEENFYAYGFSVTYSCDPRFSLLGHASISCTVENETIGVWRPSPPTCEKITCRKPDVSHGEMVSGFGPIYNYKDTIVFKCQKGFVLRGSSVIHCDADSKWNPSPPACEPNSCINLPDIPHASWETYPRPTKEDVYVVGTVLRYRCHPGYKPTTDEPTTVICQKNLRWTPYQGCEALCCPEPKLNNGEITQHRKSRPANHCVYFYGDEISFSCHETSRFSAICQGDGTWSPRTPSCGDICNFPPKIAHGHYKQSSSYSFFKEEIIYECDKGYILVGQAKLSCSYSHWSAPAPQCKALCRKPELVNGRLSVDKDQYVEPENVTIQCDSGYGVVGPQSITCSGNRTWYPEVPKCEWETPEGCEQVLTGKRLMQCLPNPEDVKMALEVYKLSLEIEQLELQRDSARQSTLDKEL
T1 sequence (looked up) 2: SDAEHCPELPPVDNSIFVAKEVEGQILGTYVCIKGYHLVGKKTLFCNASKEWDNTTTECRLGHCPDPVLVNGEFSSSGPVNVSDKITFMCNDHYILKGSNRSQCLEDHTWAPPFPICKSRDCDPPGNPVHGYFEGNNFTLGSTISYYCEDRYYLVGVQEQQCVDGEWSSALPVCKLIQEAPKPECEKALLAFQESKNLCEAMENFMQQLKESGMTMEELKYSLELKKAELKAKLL

[1] = biological target: T2, Complement Factor H protein (human, UniProt P08603 19-1231); assay: bispecific ELISA
T2 construct: Plasma protein, bought purified or present in normal human serum; also called FH; CFH
T2 sequence (P08603 19-1231 limits assumed): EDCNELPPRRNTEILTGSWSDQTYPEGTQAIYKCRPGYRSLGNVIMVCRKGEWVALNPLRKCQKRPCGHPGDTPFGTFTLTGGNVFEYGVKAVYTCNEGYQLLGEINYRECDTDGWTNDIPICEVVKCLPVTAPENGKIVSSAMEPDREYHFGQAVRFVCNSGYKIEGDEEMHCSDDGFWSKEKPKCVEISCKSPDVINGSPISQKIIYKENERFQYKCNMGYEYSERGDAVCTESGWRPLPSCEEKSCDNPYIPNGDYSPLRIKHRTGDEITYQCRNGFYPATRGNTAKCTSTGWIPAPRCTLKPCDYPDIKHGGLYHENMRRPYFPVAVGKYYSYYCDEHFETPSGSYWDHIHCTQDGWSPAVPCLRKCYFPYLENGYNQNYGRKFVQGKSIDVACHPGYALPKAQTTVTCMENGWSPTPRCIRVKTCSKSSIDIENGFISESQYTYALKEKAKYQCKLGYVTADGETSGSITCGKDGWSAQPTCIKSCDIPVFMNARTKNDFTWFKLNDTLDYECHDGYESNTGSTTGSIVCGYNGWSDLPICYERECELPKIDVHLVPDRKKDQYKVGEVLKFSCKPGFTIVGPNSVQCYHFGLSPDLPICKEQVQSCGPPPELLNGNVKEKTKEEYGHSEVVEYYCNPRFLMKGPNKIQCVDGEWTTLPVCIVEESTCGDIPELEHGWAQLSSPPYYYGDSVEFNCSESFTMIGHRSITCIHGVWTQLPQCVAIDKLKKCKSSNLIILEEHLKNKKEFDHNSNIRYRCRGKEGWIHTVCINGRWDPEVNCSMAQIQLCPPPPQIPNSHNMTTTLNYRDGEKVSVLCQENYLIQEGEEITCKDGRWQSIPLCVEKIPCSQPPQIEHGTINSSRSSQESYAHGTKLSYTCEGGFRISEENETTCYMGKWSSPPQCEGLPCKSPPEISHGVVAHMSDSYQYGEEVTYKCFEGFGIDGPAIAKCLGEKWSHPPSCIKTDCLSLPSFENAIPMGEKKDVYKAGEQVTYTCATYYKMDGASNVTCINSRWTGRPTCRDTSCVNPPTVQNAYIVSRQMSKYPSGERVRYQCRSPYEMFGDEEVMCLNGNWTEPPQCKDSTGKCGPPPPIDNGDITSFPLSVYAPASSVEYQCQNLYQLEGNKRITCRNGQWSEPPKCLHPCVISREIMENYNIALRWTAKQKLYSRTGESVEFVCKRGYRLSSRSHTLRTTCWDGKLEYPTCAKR
Method: BsAbs were tested for binding to both antigens in a bispecific ELISA. MaxiSorp plates (Thermo Scientific, Nunc, 430341) were coated with 50 μL/well BSA-DNP (10 μg/mL, Biosearch Technologies, D-5050-10, conjugation ration 13) in coating buffer (0.1 M Na₂CO₃/NaHCO₃PH 9.6) for 1 hour at 37° C. After every incubation, plates were washed three times with PBS/0.05% Tween 20. Plates were blocked with 100 μL/well PBS/1% BSA for 1 hour at 37° C. After washing, plates were incubated with 50 μL/well (bs) Abs diluted in PBS/0.05% Tween 20/1% BSA (PTB buffer) for 1 hour at 37° C. Next, 1 μg/mL FH (CompTech, A137) or C4BP (CompTech, A109) diluted in PTB buffer was added. FH was detected using goat anti-human FH (Quidel, A312) and HRP-labeled rabbit anti-goat Ig (Dako, P0449), and C4BP was detected using rabbit anti-human C4BP (kind gift from Anna M. Blom, Malmö, Sweden) and HRP-labeled goat anti-rabbit Ig (Dako, P0448), all diluted in PTB buffer. Plates were developed by incubating with 50 μL/well ABTS (Merck, A1888-5G) containing 1:2000 diluted H₂O₂ (Merck, 1072090250), and read at 415 nm using a microplate reader (BIO-RAD iMark). It was confirmed by ELISA that the bsAbs can bind to a specific target (e.g., DNP as a model antigen) as well as FH or C4BP, whereas the parental monospecific antibodies cannot (FIG. 1A).

[2] = biological target: T2, Complement Factor H protein; assay: flow cytometry, FH detected on Ramos cells treated with bsAb and normal human serum
Method: Ramos cells (originally from ATCC) were plated at 100,000 cells/well (V-bottom microplate, Greiner Bio-One, 651101). Cells were incubated with 100 μL/well samples containing 0.3 μg/mL anti-CD20 wild-type with or without 20 μg/mL bsAbs (anti-FH x anti-HLA I and controls) with or without 10 μg/mL FH for 30 minutes. After every incubation, cells were washed with 150 μL/well PBS/1% FCS. Cells were incubated with 100 μL/well 10% NHS in RPMI (for FH detection in the presence of 50 μg/mL eculizumab) for 45 minutes at 37° C. Cell viability was measured by adding 100 μL/well 7-AAD (BD Pharmingen, 559925) 1:200 diluted in PBS/1% FCS. FH was detected using mouse anti-human FH (1:100, OX-23, generated in-house) and goat anti-mouse IgG AF488 (1:50, Life Technologies, A11001). Cells were measured using a FACSCanto flow cytometer (BD Biosciences).

binding result (C4b-binding protein): binds
B1: Anti-C4BP F405L LALAPG, Anti-biotin K409R LALAPG (bispecific antibody, human IgG1, kappa, L234A L235A)
heavy 1: EVQLVESGGGLVKPGGSLKLSCAVSGFIFSDYYMYWVRQTPEKRLEWVATISDGGVYTYYPDSMKGRFTISRDNAKNNLYLQMSSLKSEDTAMYYCVRGDYYGNSLDYWGQGTSVTVSSASTKGPSVFPLAPSSKSTSGGTAALGCLVKDYFPEPVTVSWNSGALTSGVHTFPAVLQSSGLYSLSSVVTVPSSSLGTQTYICNVNHKPSNTKVDKRVEPKSCDKTHTCPPCPAPEAAGGPSVFLFPPKPKDTLMISRTPEVTCVVVDVSHEDPEVKFNWYVDGVEVHNAKTKPREEQYNSTYRVVSVLTVLHQDWLNGKEYKCKVSNKALGAPIEKTISKAKGQPREPQVYTLPPSREEMTKNQVSLTCLVKGFYPSDIAVEWESNGQPENNYKTTPPVLDSDGSFLLYSKLTVDKSRWQQGNVFSCSVMHEALHNHYTQKSLSLSPGK
light 1: DVVMTQTPLTLSITIGQPASISCKSSQSLLDGDGKTYLNWLLQRPGQSPKRLIYLVSKLDSGVPDRFTGSGSGTDFTLKISRVEAEDLGVYYCCQGTHFPWTFGRGTKLEIKRTVAAPSVFIFPPSDEQLKSGTASVVCLLNNFYPREAKVQWKVDNALQSGNSQESVTEQDSKDSTYSLSSTLTLSKADYEKHKVYACEVTHQGLSSPVTKSFNRGEC
heavy 2: QVKLQESGPGLVAPSQSLSITCTVSGFSLTAYGVDWVRQPPGKGLEWLGVIWGGGRTNYNSGLMSRLSIRKDNSKSQVFLTMNSLQTDDTAKYYCVKHTNWDGGFAYWGQGTTVTVSSASTKGPSVFPLAPSSKSTSGGTAALGCLVKDYFPEPVTVSWNSGALTSGVHTFPAVLQSSGLYSLSSVVTVPSSSLGTQTYICNVNHKPSNTKVDKRVEPKSCDKTHTCPPCPAPEAAGGPSVFLFPPKPKDTLMISRTPEVTCVVVDVSHEDPEVKFNWYVDGVEVHNAKTKPREEQYNSTYRVVSVLTVLHQDWLNGKEYKCKVSNKALGAPIEKTISKAKGQPREPQVYTLPPSREEMTKNQVSLTCLVKGFYPSDIAVEWESNGQPENNYKTTPPVLDSDGSFFLYSRLTVDKSRWQQGNVFSCSVMHEALHNHYTQKSLSLSPGK
light 2: DVVMTQSPLSLPVSLGDQASISCRSGQGLVYSNGDTYLHWYLQKPGQSPKLLIYKVSNRFSGVPDRFSGSGSGTDFTLKISRVEAEDLGVYFCSQSTHFPFTFGSGTKLEIKRTVAAPSVFIFPPSDEQLKSGTASVVCLLNNFYPREAKVQWKVDNALQSGNSQESVTEQDSKDSTYSLSSTLTLSKADYEKHKVYACEVTHQGLSSPVTKSFNRGEC
notes: Made by controlled Fab-arm exchange; also called anti-C4BP x anti-biotin

binding result [1]: binds
B2: Anti-FH F405L LALAPG, Anti-DNP K409R LALAPG (bispecific antibody, human IgG1, kappa, L234A L235A)
heavy 1: EVQLQQSGPELVKPGASVKISCKASGYSFTGYFIHWVKQSHVKSLEWFGRINPYNGATDYNQNFKDKAILTIDESSSTAYMEIHSLTSDDSAVYYCARGLFLDYWGQGTTLTVSSASTKGPSVFPLAPSSKSTSGGTAALGCLVKDYFPEPVTVSWNSGALTSGVHTFPAVLQSSGLYSLSSVVTVPSSSLGTQTYICNVNHKPSNTKVDKRVEPKSCDKTHTCPPCPAPEAAGGPSVFLFPPKPKDTLMISRTPEVTCVVVDVSHEDPEVKFNWYVDGVEVHNAKTKPREEQYNSTYRVVSVLTVLHQDWLNGKEYKCKVSNKALGAPIEKTISKAKGQPREPQVYTLPPSREEMTKNQVSLTCLVKGFYPSDIAVEWESNGQPENNYKTTPPVLDSDGSFLLYSKLTVDKSRWQQGNVFSCSVMHEALHNHYTQKSLSLSPGK
light 1: DILMTQSPSSMSVSLGDTVSITCHASQGITSNIGWLQQKPGKSFKGLIYHGTNLEDGVPSRFSGSGSGADYSLTISSLESEDFADYYCVQYAQFPWTFGGGTKLEIKRTVAAPSVFIFPPSDEQLKSGTASVVCLLNNFYPREAKVQWKVDNALQSGNSQESVTEQDSKDSTYSLSSTLTLSKADYEKHKVYACEVTHQGLSSPVTKSFNRGEC
heavy 2: DVRLQESGPGLVKPSQSLSLTCSVTGYSITNSYYWNWIRQFPGNKLEWMVYIGYDGSNNYNPSLKNRISITRDTSKNQFFLKLNSVTTEDTATYYCARATYYGNYRGFAYWGQGTLVTVSAASTKGPSVFPLAPSSKSTSGGTAALGCLVKDYFPEPVTVSWNSGALTSGVHTFPAVLQSSGLYSLSSVVTVPSSSLGTQTYICNVNHKPSNTKVDKRVEPKSCDKTHTCPPCPAPEAAGGPSVFLFPPKPKDTLMISRTPEVTCVVVDVSHEDPEVKFNWYVDGVEVHNAKTKPREEQYNSTYRVVSVLTVLHQDWLNGKEYKCKVSNKALGAPIEKTISKAKGQPREPQVYTLPPSREEMTKNQVSLTCLVKGFYPSDIAVEWESNGQPENNYKTTPPVLDSDGSFFLYSRLTVDKSRWQQGNVFSCSVMHEALHNHYTQKSLSLSPGK
light 2: DIRMTQTTSSLSASLGDRVTISCRASQDISNYLNWYQQKPDGTVKLLIYYTSRLHSGVPSRFSGSGSGTDYSLTISNLEQEDIATYFCQQGNTLPWTFGGGTKLEIKRTVAAPSVFIFPPSDEQLKSGTASVVCLLNNFYPREAKVQWKVDNALQSGNSQESVTEQDSKDSTYSLSSTLTLSKADYEKHKVYACEVTHQGLSSPVTKSFNRGEC
notes: Made by controlled Fab-arm exchange of the two parental IgG1 kappa antibodies; also called anti-FH x anti-DNP

binding result [2]: binds
B3: Anti-FH F405L LALAPG, Anti-HLA I K409R LALAPG (bispecific antibody, human IgG1, kappa, L234A L235A)
heavy 1: EVQLQQSGPELVKPGASVKISCKASGYSFTGYFIHWVKQSHVKSLEWFGRINPYNGATDYNQNFKDKAILTIDESSSTAYMEIHSLTSDDSAVYYCARGLFLDYWGQGTTLTVSSASTKGPSVFPLAPSSKSTSGGTAALGCLVKDYFPEPVTVSWNSGALTSGVHTFPAVLQSSGLYSLSSVVTVPSSSLGTQTYICNVNHKPSNTKVDKRVEPKSCDKTHTCPPCPAPEAAGGPSVFLFPPKPKDTLMISRTPEVTCVVVDVSHEDPEVKFNWYVDGVEVHNAKTKPREEQYNSTYRVVSVLTVLHQDWLNGKEYKCKVSNKALGAPIEKTISKAKGQPREPQVYTLPPSREEMTKNQVSLTCLVKGFYPSDIAVEWESNGQPENNYKTTPPVLDSDGSFLLYSKLTVDKSRWQQGNVFSCSVMHEALHNHYTQKSLSLSPGK
light 1: DILMTQSPSSMSVSLGDTVSITCHASQGITSNIGWLQQKPGKSFKGLIYHGTNLEDGVPSRFSGSGSGADYSLTISSLESEDFADYYCVQYAQFPWTFGGGTKLEIKRTVAAPSVFIFPPSDEQLKSGTASVVCLLNNFYPREAKVQWKVDNALQSGNSQESVTEQDSKDSTYSLSSTLTLSKADYEKHKVYACEVTHQGLSSPVTKSFNRGEC
heavy 2: QVQLKQSGPGLVQPSQSLSLTCTVSGFSLTSYGVHWVRQPPGKGLEWLGVIWSGGSTDYNAAFISRLSIRKDNSKSQVFFKMNSLQADDTAIYYCARTFTTSTSAWFAYWGQGTLVTVSAASTKGPSVFPLAPSSKSTSGGTAALGCLVKDYFPEPVTVSWNSGALTSGVHTFPAVLQSSGLYSLSSVVTVPSSSLGTQTYICNVNHKPSNTKVDKRVEPKSCDKTHTCPPCPAPEAAGGPSVFLFPPKPKDTLMISRTPEVTCVVVDVSHEDPEVKFNWYVDGVEVHNAKTKPREEQYNSTYRVVSVLTVLHQDWLNGKEYKCKVSNKALGAPIEKTISKAKGQPREPQVYTLPPSREEMTKNQVSLTCLVKGFYPSDIAVEWESNGQPENNYKTTPPVLDSDGSFFLYSRLTVDKSRWQQGNVFSCSVMHEALHNHYTQKSLSLSPGK
light 2: SIVMTQTPKFLLVSAGDRVTITCKASQSVSNDVAWYQQKPGQSPKLLIYYASNRYTGVPDRFTGSGYGTDFTFTISTVQAEDLAVYFCQQDYSSPPWTFGGGTKLEIRRTVAAPSVFIFPPSDEQLKSGTASVVCLLNNFYPREAKVQWKVDNALQSGNSQESVTEQDSKDSTYSLSSTLTLSKADYEKHKVYACEVTHQGLSSPVTKSFNRGEC
notes: Made by controlled Fab-arm exchange; also called anti-FH x anti-HLA I
